Data reported in paper PMC9482650, “Quantitative fragmentomics allow affinity mapping of interactomes” (Nature Communications, 2022).

How the values were obtained:
Assay in all cases: holdup assay
Design in all cases: key: below the threshold = too weak to quantify, mostly under pKd 3.1 to 4
CASK, O14936 = molecular target: CASK, O14936
DLG3_1, Q92796 = molecular target: T1, DLG3_1, Q92796
T1 sequence (Q92796 125-227, limits assumed, looked up): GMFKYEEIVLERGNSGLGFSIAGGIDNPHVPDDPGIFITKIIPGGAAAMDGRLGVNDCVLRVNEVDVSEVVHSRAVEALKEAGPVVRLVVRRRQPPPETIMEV

DLG3_2, Q92796 = molecular target: T2, DLG3_2, Q92796
T2 sequence (Q92796 221-321, limits assumed, looked up): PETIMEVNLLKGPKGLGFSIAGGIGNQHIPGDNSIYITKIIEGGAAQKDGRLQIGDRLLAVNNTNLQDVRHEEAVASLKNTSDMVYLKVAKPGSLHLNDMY

DLG4_1, P78352 = molecular target: DLG4_1, P78352
FRMPD2_1, Q68DX3 = molecular target: FRMPD2_1, Q68DX3
FRMPD2_2, Q68DX3 = molecular target: FRMPD2_2, Q68DX3
FRMPD2_3, Q68DX3 = molecular target: FRMPD2_3, Q68DX3
GORASP1, Q9BQQ3 = molecular target: GORASP1, Q9BQQ3
GORASP2, Q9H8Y8 = molecular target: GORASP2, Q9H8Y8
GRID2IP_1, A4D2P6 = molecular target: GRID2IP_1, A4D2P6
GRIP1_7, Q9Y3R0 = molecular target: T3, GRIP1_7, Q9Y3R0
T3 sequence (Q9Y3R0 999-1096, limits assumed, looked up): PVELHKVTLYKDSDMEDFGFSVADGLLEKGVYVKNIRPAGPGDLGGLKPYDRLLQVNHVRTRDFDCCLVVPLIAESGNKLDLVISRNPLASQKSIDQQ

HTRA3, P83110 = molecular target: T4, HTRA3, P83110
T4 sequence (P83110 354-453, limits assumed, looked up): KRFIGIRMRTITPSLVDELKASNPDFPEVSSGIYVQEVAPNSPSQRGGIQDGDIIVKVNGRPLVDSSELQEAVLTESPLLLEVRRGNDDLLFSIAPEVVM

Inadl_5, Q8NI35 = molecular target: Inadl_5, Q8NI35
Inadl_8, Q8NI35 = molecular target: Inadl_8, Q8NI35
LAP2, Q96RT1 = molecular target: LAP2, Q96RT1
LIN7A, O14910 = molecular target: T5, LIN7A, O14910
T5 sequence (O14910 103-200, limits assumed, looked up): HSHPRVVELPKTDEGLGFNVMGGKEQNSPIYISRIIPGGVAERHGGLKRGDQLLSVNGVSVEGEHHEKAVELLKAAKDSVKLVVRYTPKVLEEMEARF

MAGI1_1, Q96QZ7 = molecular target: MAGI1_1, Q96QZ7
MAGI2_6, Q86UL8 = molecular target: MAGI2_6, Q86UL8
MAGI3_2, Q5TCQ9 = molecular target: MAGI3_2, Q5TCQ9
MPDZ_5, O75970 = molecular target: T6, MPDZ_5, O75970
T6 sequence (O75970 695-796, limits assumed, looked up): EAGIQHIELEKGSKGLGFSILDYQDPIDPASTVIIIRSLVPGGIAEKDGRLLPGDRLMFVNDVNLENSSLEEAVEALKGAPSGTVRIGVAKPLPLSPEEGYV

NHERF3_3, Q5T2W1 = molecular target: T7, NHERF3_3, Q5T2W1
T7 sequence (Q5T2W1 238-333, limits assumed, looked up): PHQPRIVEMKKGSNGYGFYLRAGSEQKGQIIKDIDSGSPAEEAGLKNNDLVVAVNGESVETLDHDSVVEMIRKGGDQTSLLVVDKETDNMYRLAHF

NHERF3_4, Q5T2W1 = molecular target: T8, NHERF3_4, Q5T2W1
T8 sequence (Q5T2W1 373-468, limits assumed, looked up): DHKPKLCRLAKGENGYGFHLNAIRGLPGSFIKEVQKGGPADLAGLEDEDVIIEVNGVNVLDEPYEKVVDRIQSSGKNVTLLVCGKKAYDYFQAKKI

PDZD2_2, O15018 = molecular target: T9, PDZD2_2, O15018
T9 sequence (O15018 329-429, limits assumed, looked up): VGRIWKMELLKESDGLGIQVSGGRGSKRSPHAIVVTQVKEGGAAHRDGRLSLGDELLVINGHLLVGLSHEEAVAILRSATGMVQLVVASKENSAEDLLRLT

RHPN1, Q8TCX5 = molecular target: T10, RHPN1, Q8TCX5
T10 sequence (Q8TCX5 508-602, limits assumed, looked up): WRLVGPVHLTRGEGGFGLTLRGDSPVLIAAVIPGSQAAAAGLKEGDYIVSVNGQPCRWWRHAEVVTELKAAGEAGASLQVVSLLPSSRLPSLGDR

SCRIB_2, Q14160 = molecular target: SCRIB_2, Q14160
SNTB1, Q13884 = molecular target: T11, SNTB1, Q13884
T11 sequence (Q13884 107-205, limits assumed, looked up): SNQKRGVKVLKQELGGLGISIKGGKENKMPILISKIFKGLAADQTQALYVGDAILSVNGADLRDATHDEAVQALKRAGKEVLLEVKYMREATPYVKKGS

TJP1_2, Q07157 = molecular target: TJP1_2, Q07157
[1] = plain residues with an end cap or a label only (N-terminal biotin on a linker: ahx)
[2] = plain residues with an end cap or a label only (N-terminal biotin on a linker: (peg)3)

Chain of CASK, O14936 (O14936 487-570): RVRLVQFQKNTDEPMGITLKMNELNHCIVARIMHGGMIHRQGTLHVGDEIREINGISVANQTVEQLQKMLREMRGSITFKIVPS
Chain of FRMPD2_2, Q68DX3 (Q68DX3 944-1038): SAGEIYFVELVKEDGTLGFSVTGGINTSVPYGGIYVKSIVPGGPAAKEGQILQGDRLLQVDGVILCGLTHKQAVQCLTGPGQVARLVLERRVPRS
Chain of FRMPD2_1, Q68DX3 (Q68DX3 770-861): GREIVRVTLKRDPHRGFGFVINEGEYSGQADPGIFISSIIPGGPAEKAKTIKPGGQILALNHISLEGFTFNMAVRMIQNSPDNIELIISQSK
Chain of MAGI3_2, Q5TCQ9 (Q5TCQ9 398-503): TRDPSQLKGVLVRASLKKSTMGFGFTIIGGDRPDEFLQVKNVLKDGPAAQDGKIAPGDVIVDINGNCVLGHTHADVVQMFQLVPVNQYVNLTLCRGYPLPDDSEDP
Chain of GORASP1, Q9BQQ3 (Q9BQQ3 1-208): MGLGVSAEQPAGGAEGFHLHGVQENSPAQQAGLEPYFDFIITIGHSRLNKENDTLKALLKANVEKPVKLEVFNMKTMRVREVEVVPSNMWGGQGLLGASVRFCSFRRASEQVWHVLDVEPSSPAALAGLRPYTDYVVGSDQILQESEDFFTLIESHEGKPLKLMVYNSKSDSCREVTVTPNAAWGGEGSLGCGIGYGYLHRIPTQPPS
Chain of GRID2IP_1, A4D2P6 (A4D2P6 1-87): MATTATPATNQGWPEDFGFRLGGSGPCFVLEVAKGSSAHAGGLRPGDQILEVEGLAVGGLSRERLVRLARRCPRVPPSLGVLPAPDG
Chain of MAGI2_6, Q86UL8 (Q86UL8 1141-1229): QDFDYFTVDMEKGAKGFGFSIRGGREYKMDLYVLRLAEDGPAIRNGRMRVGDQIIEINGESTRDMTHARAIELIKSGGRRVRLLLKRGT
Chain of SCRIB_2, Q14160 (Q14160 857-960): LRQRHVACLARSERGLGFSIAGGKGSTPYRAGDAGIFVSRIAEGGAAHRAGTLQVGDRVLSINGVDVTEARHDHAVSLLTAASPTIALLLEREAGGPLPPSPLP
Chain of Inadl_8, Q8NI35 (Q8NI35 1425-1530): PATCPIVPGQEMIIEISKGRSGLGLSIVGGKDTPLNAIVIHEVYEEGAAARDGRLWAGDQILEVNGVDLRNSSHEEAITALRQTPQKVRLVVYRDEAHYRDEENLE
Chain of TJP1_2, Q07157 (Q07157 181-274): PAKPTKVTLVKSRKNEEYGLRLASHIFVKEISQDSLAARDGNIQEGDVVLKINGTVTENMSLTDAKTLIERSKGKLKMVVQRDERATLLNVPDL
Chain of Inadl_5, Q8NI35 (Q8NI35 673-780): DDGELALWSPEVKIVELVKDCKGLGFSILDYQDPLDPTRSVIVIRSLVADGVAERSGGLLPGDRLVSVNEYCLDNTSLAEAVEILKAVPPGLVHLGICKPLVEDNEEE
Chain of LAP2, Q96RT1 (Q96RT1 other isoform, or with tags, fused parts or gaps): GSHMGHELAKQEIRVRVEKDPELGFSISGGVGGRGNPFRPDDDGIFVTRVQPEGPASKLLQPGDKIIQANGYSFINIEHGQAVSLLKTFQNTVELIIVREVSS
Chain of MAGI1_1, Q96QZ7 (Q96QZ7 1-106): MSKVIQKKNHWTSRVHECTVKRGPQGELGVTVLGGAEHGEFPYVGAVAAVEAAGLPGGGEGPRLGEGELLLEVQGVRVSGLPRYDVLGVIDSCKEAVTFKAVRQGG
Chain of DLG4_1, P78352 (P78352 62-152): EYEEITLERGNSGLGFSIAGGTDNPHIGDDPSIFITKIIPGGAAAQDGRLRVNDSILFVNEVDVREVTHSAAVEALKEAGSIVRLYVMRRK
Chain of FRMPD2_3, Q68DX3 (Q68DX3 1073-1166): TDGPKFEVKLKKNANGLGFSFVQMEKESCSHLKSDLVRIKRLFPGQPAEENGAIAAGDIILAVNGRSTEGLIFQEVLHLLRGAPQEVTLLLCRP

Question: For QPRTWLQSPV [RTKN, Q9BST9], which pKd (CASK, O14936; [1]) is on record?
Answer: The pKd was “below the threshold”.

Question: And the pKd (DLG3_1, Q92796; [1])?
Answer: The pKd was “below the threshold”.

Question: What about the pKd (DLG3_2, Q92796; [1]) of the same binder?
Answer: Its pKd is 4.04.

Question: What about the pKd (DLG4_1, P78352; [1]) of the same binder?
Answer: The pKd was 4.19.

Question: And the pKd (FRMPD2_1, Q68DX3; [1])?
Answer: Its pKd is “below the threshold”.

Question: And the pKd (FRMPD2_2, Q68DX3; [1])?
Answer: Its pKd is “below the threshold”.

Question: What about the pKd (FRMPD2_3, Q68DX3; [1]) of the same binder?
Answer: Its pKd is “below the threshold”.

Question: And the pKd (GORASP1, Q9BQQ3; [1])?
Answer: The pKd was “below the threshold”.

Question: What about the pKd (GORASP2, Q9H8Y8; [1]) of the same binder?
Answer: The pKd was “below the threshold”.

Question: And the pKd (GRID2IP_1, A4D2P6; [1])?
Answer: The pKd was “below the threshold”.

Question: What about the pKd (GRIP1_7, Q9Y3R0; [1]) of the same binder?
Answer: The pKd was “below the threshold”.

Question: What about the pKd (HTRA3, P83110; [1]) of the same binder?
Answer: Its pKd is “below the threshold”.

Question: What about the pKd (Inadl_5, Q8NI35; [1]) of the same binder?
Answer: Its pKd is “below the threshold”.

Question: What about the pKd (Inadl_8, Q8NI35; [1]) of the same binder?
Answer: Its pKd is 4.89.

Question: What about the pKd (LAP2, Q96RT1; [1]) of the same binder?
Answer: Its pKd is 4.42.

Question: And the pKd (LIN7A, O14910; [1])?
Answer: The pKd was “below the threshold”.

Question: What about the pKd (MAGI1_1, Q96QZ7; [1]) of the same binder?
Answer: The pKd was “below the threshold”.

Question: And the pKd (MAGI2_6, Q86UL8; [1])?
Answer: Its pKd is “below the threshold”.

Question: What about the pKd (MAGI3_2, Q5TCQ9; [1]) of the same binder?
Answer: The pKd was 4.53.

Question: And the pKd (MPDZ_5, O75970; [1])?
Answer: Its pKd is “below the threshold”.

Question: What about the pKd (NHERF3_3, Q5T2W1; [1]) of the same binder?
Answer: Its pKd is “below the threshold”.

Question: What about the pKd (NHERF3_4, Q5T2W1; [1]) of the same binder?
Answer: The pKd was “below the threshold”.

Question: And the pKd (PDZD2_2, O15018; [1])?
Answer: The pKd was 4.71.

Question: What about the pKd (RHPN1, Q8TCX5; [1]) of the same binder?
Answer: The pKd was 3.7.

Question: What about the pKd (SCRIB_2, Q14160; [1]) of the same binder?
Answer: The pKd was “below the threshold”.

Question: And the pKd (SNTB1, Q13884; [1])?
Answer: The pKd was “below the threshold”.

Question: What about the pKd (TJP1_2, Q07157; [1]) of the same binder?
Answer: The pKd was “below the threshold”.

Question: What does the source list for RYEDTTLVEDTVL [WNV-NS5, Q9Q6P4]?
Answer: pKd (CASK, O14936; [2]): below the threshold; pKd (DLG3_1, Q92796; [2]): below the threshold; pKd (DLG3_2, Q92796; [2]): 3.76; pKd (DLG4_1, P78352; [2]): below the threshold; pKd (FRMPD2_1, Q68DX3; [2]): below the threshold; pKd (FRMPD2_2, Q68DX3; [2]): below the threshold; pKd (FRMPD2_3, Q68DX3; [2]): below the threshold; pKd (GORASP1, Q9BQQ3; [2]): 3.77; pKd (GORASP2, Q9H8Y8; [2]): below the threshold; pKd (GRID2IP_1, A4D2P6; [2]): below the threshold; pKd (GRIP1_7, Q9Y3R0; [2]): below the threshold; pKd (HTRA3, P83110; [2]): below the threshold; pKd (Inadl_5, Q8NI35; [2]): below the threshold; pKd (Inadl_8, Q8NI35; [2]): below the threshold; pKd (LAP2, Q96RT1; [2]): below the threshold; pKd (LIN7A, O14910; [2]): 3.59; pKd (MAGI1_1, Q96QZ7; [2]): 3.62; pKd (MAGI2_6, Q86UL8; [2]): 3.78; pKd (MAGI3_2, Q5TCQ9; [2]): 3.5; pKd (MPDZ_5, O75970; [2]): below the threshold; pKd (NHERF3_3, Q5T2W1; [2]): below the threshold; pKd (NHERF3_4, Q5T2W1; [2]): 3.96; pKd (PDZD2_2, O15018; [2]): 4.42; pKd (RHPN1, Q8TCX5; [2]): 4.41; pKd (SCRIB_2, Q14160; [2]): below the threshold; pKd (SNTB1, Q13884; [2]): 4.27; pKd (TJP1_2, Q07157; [2]): 3.55
